We go through one molecule from article PMC10311653.

The target of the assay is wildtype (WT) human interleukin-1β (human) (UniProt P01584). The assay can be described thus: ELISA; antigen (100 ng) coated on the plate; scFv-mFc added in 3% skim milk in DPBST, 2 h at 37 °C; EC50. For orientation: An ELISA detects its analyte on a solid surface through an enzyme-linked reagent.

B1: E64Kcr-H11-mFc (Fc fusion)
VH: EVQLQQSGAELVKPGASVRLSCTASGFNIKDYYMHWVKQRPEQGLEWIGWIDPENGDTEYAPKFQGKATMTADTSSNTAYLQLSSLTSEDTAVYYCNGYDDYWGQGTTLTVSS
VL: DIVMTQSQKFMSTSVGDRVSVTCKASQNVGTDVAWYQQKPGQSPKALIYSASYHYSGVPDRFTGTGSGTDFTLTISNVRSEDLAEYFCQQYNSYPYTFGGGTKLEIK
The term EC50 denotes the concentration that produces a half-maximal response. In the case of B1, the concentration for a half-maximal effect (EC50) is 17.4 nM.
